Measured values from patent publication US20210380703A1.

Biological target: Human Fc (human)
Assay: ELISA; negative control

| Binder | optical density [OD] |
| --- | --- |
| 368_D02 (antibody, V domains shown) VH: EVQLLESGGGLVQPGGSLRLSCAASGFTFDDYGMNWVRQAPGKGLEWVSNINYNGGYTGYADSVKGRFTISRDNSKNTLYLQMNSLRAEDTAVYYCARGATWHDTHLDYWGQGTLVTVSS VL: DIQMTQSPSSLSASVGDRVTITCRASQSISTYLNWYQQKPGKAPKLVIYAATSRHSGVPSRFSGSGSGTDFTLTISSLQPEDFATYYCQQSYDTPLTFGGGTKVEIK | 0.321 |
| 368_D12 (antibody, V domains shown) VH: EVQLLESGGGLVQPGGSLRLSCAASGFTFSSYGMNWVRQAPGKGLEWVSSINYNGGYTSYADSVKGRFTISRDNSKNTLYLQMNSLRAEDTAVYYCARGATWHDTHLDYWGQGTLVTVSS VL: DIQMTQSPSSLSASVGDRVTITCRASQSILSYVNWYQQKPGKAPKLVIYAATSRASGVPSRFSGSGSGTDFTLTISSLQPEDFATYYCQQSYNNPLTFGGGTKVEIK | 0.329 |
| 368_F06 (antibody, V domains shown) VH: EVQLLESGGGLVQPGGSLRLSCAASGFTFDDYSMHWVRQAPGKGLEWVANINYNSGYTGYADSVKGRFTISRDNSKNTLYLQMNSLRAEDTAVYYCARGATWHDTHLDYWGQGTLVTVSS VL: DIQMTQSPSSLSASVGDRVTITCRASQSILSYLNWYQQKPGKAPKLVIYATTSRASGVPSRFSGSGSGTDFTLTISSLQPEDFATYYCQQSYENPLTFGGGTKVEIK | 0.249 |
| 368_G03 (antibody, V domains shown) VH: EVQLLESGGGLVQPGGSLRLSCAASGFTFSSYSMNWVRQAPGKGLEWVSGINYNSGYTSYADSVKGRFTISRDNSKNTLYLQMNSLRAEDTAVYYCARGATWHDTALDYWGQGTLVTVSS VL: DIQMTQSPSSLSASVGDRVTITCRASQSILSYLNWYQQKPGKAPKLVIYAATSRASGVPSRFSGSGSGTDFTLTISSLQPEDFATYYCQQSYDTPLTFGGGTKVEIK | 0.312 |
| 368_G10 (antibody, V domains shown) VH: EVQLLESGGGLVQPGGSLRLSCAASGFTFSSYSMHWVRQAPGKGLEWVSSINYNGGYTSYADSVKGRFTISRDNSKNTLYLQMNSLRAEDTAVYYCARGATWHDTHLDYWGQGTLVTVSS VL: DIQMTQSPSSLSASVGDRVTITCRASQSIVSYVNWYQQKPGKAPKLVIYAATSRASGVPSRFSGSGSGTDFTLTISSLQPEDFATYYCQQSYDTPLTFGGGTKVEIK | 0.356 |
| 368_H06 (antibody, V domains shown) VH: EVQLLESGGGLVQPGGSLRLSCAASGFTFDSYGMHWVRQAPGKGLEWVANINYNGGYKSYADSVKGRFTISRDNSKNTLYLQMNSLRAEDTAVYYCARGATWHDTHLDYWGQGTLVTVSS VL: DIQMTQSPSSLSASVGDRVTITCRASQSILTYVNWYQQKPGKAPKLLIYATTSRASGVPSRFSGSGSGTDFTLTISSLQPEDFATYYCQQSYDNPLTFGGGTKVEIK | 0.311 |
| 368_H11 (antibody, V domains shown) VH: EVQLLESGGGLVQPGGSLRLSCAASGFTFDSYGMHWVRQAPGKGLEWVASINYNGGYTSYADSVKGRFTISRDNSKNTLYLQMNSLRAEDTAVYYCARGATWHDTHLDYWGQGTLVTVSS VL: DIQMTQSPSSLSASVGDRVTITCRASQSILSYLNWYQQKPGKAPKLLIYAATSRASGVPSRFSGSGSGTDFTLTISSLQPEDFATYYCQQSDDTPLTFGGGTKVEIK | 0.355 |
| 369_A11 (antibody, V domains shown) VH: EVQLLESGGGLVQPGGSLRLSCAASGFTFDSYGMNWVRQAPGKGLEWVANINYNGGYKGYADSVKGRFTISRDNSKNTLYLQMNSLRAEDTAVYYCARGATWHDTHLDYWGQGTLVTVSS VL: DIQMTQSPSSLSASVGDRVTITCRASQSIITYLNWYQQKPGKAPKLVIYAATSRHSGVPSRFSGSGSGTDFTLTISSLQPEDFATYYCQQSYESPLTFGGGTKVEIK | 0.366 |

Continued, values first:

| optical density [OD] | Binder |
| --- | --- |
| 0.418 | 369_C12 (antibody, V domains shown) VH: EVQLLESGGGLVQPGGSLRLSCAASGFTFSSYGMNWVRQAPGKGLEWVANINYNGGYKGYADSVKGRFTISRDNSKNTLYLQMNSLRAEDTAVYYCARGATWHDTHLDYWGQGTLVTVSS VL: DIQMTQSPSSLSASVGDRVTITCRASQSILTYLNWYQQKPGKAPKLLIYAATSRHSGVPSRFSGSGSGTDFTLTISSLQPEDFATYYCQQSYDTPLTFGGGTKVEIK |
| 0.241 | 369_D08 (antibody, V domains shown) VH: EVQLLESGGGLVQPGGSLRLSCAASGFTFSDYSMNWVRQAPGKGLEWVASINYNGGYKGYADSVKGRFTISRDNSKNTLYLQMNSLRAEDTAVYYCARGATWHDTHLDYWGQGTLVTVSS VL: DIQMTQSPSSLSASVGDRVTITCRASQSILTYLNWYQQKPGKAPKLLIYAATSRASGVPSRFSGSGSGTDFTLTISSLQPEDFATYYCQQSYDTPLTFGGGTKVEIK |
| 0.282 | 369_E05 (antibody, V domains shown) VH: EVQLLESGGGLVQPGGSLRLSCAASGFTFSDYGMNWVRQAPGKGLEWVANINYNGGYKSYADSVKGRFTISRDNSKNTLYLQMNSLRAEDTAVYYCARGATWHDTHLDYWGQGTLVTVSS VL: DIQMTQSPSSLSASVGDRVTITCRASQSILTYLNWYQQKPGKAPKLLIYAATSLASGVPSRFSGSGSGTDFTLTISSLQPEDFATYYCQQSYETPLTFGGGTKVEIK |
| 0.272 | 369_E08 (antibody, V domains shown) VH: EVQLLESGGGLVQPGGSLRLSCAASGFTFSSYSMNWVRQAPGKGLEWVASINYNSGYTGYADSVKGRFTISRDNSKNTLYLQMNSLRAEDTAVYYCARGATWHDTHLDYWGQGTLVTVSS VL: DIQMTQSPSSLSASVGDRVTITCRASQSILTYVNWYQQKPGKAPKLLIYAATSRASGVPSRFSGSGSGTDFTLTISSLQPEDFATYYCQQSYDSPLTFGGGTKVEIK |
| 0.331 | 369_F05 (antibody, V domains shown) VH: EVQLLESGGGLVQPGGSLRLSCAASGFTFSSYSMNWVRQAPGKGLEWVSGINYNGGYKSYADSVKGRFTISRDNSKNTLYLQMNSLRAEDTAVYYCARGATWHDTHLDYWGQGTLVTVSS VL: DIQMTQSPSSLSASVGDRVTITCRASQSISSYLNWYQQKPGKAPKLLIYAASSLQSGVPSRFSGSGSGTDFTLTISSLQPEDFATYYCQQGYDSPLTFGGGTKVEIK |
| 0.5 | 369_F09 (antibody, V domains shown) VH: EVQLLESGGGLVQPGGSLRLSCAASGFTFSSYGMHWVRQAPGKGLEWVAGINYNGGYTSYADSVKGRFTISRDNSKNTLYLQMNSLRAEDTAVYYCARGATWHDTHLDYWGQGTLVTVSS VL: DIQMTQSPSSLSASVGDRVTITCRASQSILTYVNWYQQKPGKAPKLLIYAATSRASGVPSRFSGSGSGTDFTLTISSLQPEDFATYYCQQSYDSPLTFGGGTKVEIK |
| 0.384 | 369_G05 (antibody, V domains shown) VH: EVQLLESGGGLVQPGGSLRLSCAASGFTFSSYSMNWVRQAPGKGLEWVAGINYNGGYTSYADSVKGRFTISRDNSKNTLYLQMNSLRAEDTAVYYCARGATWHDTHLDYWGQGTLVTVSS VL: DIQMTQSPSSLSASVGDRVTITCRASQSIVSYLNWYQQKPGKAPKLLIYAATSRHSGVPSRFSGSGSGTDFTLTISSLQPEDFATYYCQQSYDSPLTFGGGTKVEIK |
| 0.408 | 369_H02 (antibody, V domains shown) VH: EVQLLESGGGLVQPGGSLRLSCAASGFTFDDYSMNWVRQAPGKGLEWVSNINYNGGYKSYADSVKGRFTISRDNSKNTLYLQMNSLRAEDTAVYYCARGATWHDTHLDYWGQGTLVTVSS VL: DIQMTQSPSSLSASVGDRVTITCRASQSIISYLNWYQQKPGKAPKLLIYAATSRASGVPSRFSGSGSGTDFTLTISSLQPEDFATYYCQQSYDSPLTFGGGTKVEIK |
